Data: the nanobody polyreactivity screen of Harvey et al. (2022)

Assay: yeast display, Sf9 membrane polyspecificity reagent, FACS + sequencing; frameworks hold sequencing errors
How it was run: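 Using colony PCR, genes from sorted yeast display clones were amplified, then sequenced on MiSeq at 2 × 250 and filtered by CDR length. The clones had been stained with 10% biotinylated, detergent-solubilized Sf9 membrane reagent for 1 hour at 4 °C and sorted by FACS into low and high (top ~1%) gates on anti-HA and streptavidin fluorescence. Polyreactivity labels come from the gate of origin.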

Row | Sequence | polyreactivity (PSR sort gate)
1 | QVQLVESGGGLVQAGGSLRLSCAASGSIFTRYAMGWYRQAPGKEREFVAAITTRGGSTYYADSVKGRFTISRDNAKNTVYLQMNSLKPEDTAVYYCNTRGKSGLWWYNYWGQGTQVTVSS | high polyreactivity
2 | QVQLVESGGGLVQAGGSLRLSCAASGRTFNRNAMGWYRQAPRKERELVAAISRGGTTSYADSVKGRFTISRDNAKNTVYLQMNSLQPEDTAVYYCAAEPYIQWVYYRGNGRRYGYWGQGTQVTVSS | high polyreactivity
3 | QVQLVESGGCIVQAGGSLRLSSPASGRNFTRYGKGWDRQAPRKERELVAAISKSTGNTYYADCVKGRFTISRDFAKNTVYLQMNSLKPEDTAVYYCAASKNKRPPYDYWGQGTQVNVSS | high polyreactivity
4 | QEQLVESGGGLVQAGGTLRLSCDASVSTQWYNAMGWYRQAPGKERELVATITAGGGSTYYADSVKGRFTISRDNAKNTVYLQMNSLKREDTAVYYCATRYTPAQLDYWGQGTQVTVSS | low polyreactivity
5 | QVQLVESGGGLVQAGGSLRLSCAASGSTFEPNAMGWYRQAPGKERELVAAIDTDASTYYADSVKGRFTISRDNAKNTVYLQMNSLKPEDTAVYYCAADYYIAITYYDGDDYWGQGTQVTVSS | low polyreactivity
6 | QVQLVESGGVLVQAGGSLRLSCAASGFTFSHNAMGWYRLARGKERELVAAISKGGSSTYYADSVKGRFTISRDNAKNTVYLQMNSLKPEDTAVYYCARPSPHKGYDYWGQGTQVTESS | high polyreactivity
7 | QVQIVESGGGSVQAGGSLRLSCADSGFTFRKNAMGWYRQAPGKERELVAAISVSGGRTYYADSVKVRFTISRDNAKNTFYLQMNSLKPEETAVYYCAARRYVLVHKYDYWGQGTQVTVSS | high polyreactivity
8 | QVQLVESGGGLVQAGGSLRLSCAASGRIFYWYARGWYRQAPGKERELVASISRRAGSTYYADSVKGRFTISRDNAKNTVYLQMHSLKPEDTAVYYCAAVGRFDRVFDYDYWGQGTQVTVSS | high polyreactivity
9 | QVQLVESGGGLVQAGGSLRLSCAASGITLYRYVMGWYRQAPGKERELVADISGRGTSTYYADSVKGRFTISRDNAKNTVYLQMNSLKPEDTAVYYSNSEYTKTGALVIPYTYYYAEDYWGQGTQVTVSS | low polyreactivity
10 | QDQLVESGGGLVQAGGSLRLSCPASGHTFAKYAMGWYRQAPGKERELVAAISSGGDTYYADSVKGRFTISRDNAKNTVYLQMNSLIPEDTAVYYCAATSICGSWSFWSPGEYRHYDYWGQGTQVTVSS | low polyreactivity
11 | QVQLVDSGGGLVQEGGSLRLSCAASGSIFLIYAMGWYRQAPGKERELVAAITGGGTTNYADSVKGRFTISRDNAKNTVYLQMNSLKPEDTAVYYCNTLYLVYLYWTSPTPSDLFDYWGQGTQVTVSS | low polyreactivity
12 | QVQLVESGVGLVQAGGSLRLSCAAYGRTFYYYAMGWYRQAPGKERELVAGITWSGGSTKYADSVKGRFTISRDNAKNTVYLQMNSLKPEDTAVYYCNARPPRWVRSMDYWGQGTQVTVSS | high polyreactivity
13 | QVQLEESGGGLVQAGGSLRLSCAASGRIFAVNAMGGYRQAPGKERELVAAINGGGSTNYADSVKGRFTLSRDNAKNTVYLQMNSLKPADTAVYYCAADVGWRSQTRGYYWGQGTQVTVSS | high polyreactivity
14 | QVQLVESGGGLVQAGGSLRLSCAASGIIFYDNAMGWYRKAPGKERELVATITRSGDSTYYADSVKGRFTISRDNAKNTVYLQMNSLKPEDTAVYYCAKDTYGVLAYFQVSREYWGQGTQVTVSS | low polyreactivity
15 | QVQLVESGGGLDQAGGSLRLSCAASGSIFGNNAMGWYRQAPGKERELVASISSSSGSTNYADSVKGRFTISRDNAKNTVYVQMNSLKPEDTAVYYCAARWRYWSRKYDYWGQGTQVTVSS | high polyreactivity
16 | QVQLVESGGGLVQAGGSLRLSCAASGRTFVLYTMGWYRQAPGKERELVAVGSTYYADSVKGRFTISRDNAKNTVYLQMNSLIAEDTAVYYCAADIHWYGYYYWGLGTQVTVSS | high polyreactivity

Row | Sequence | polyreactivity (PSR sort gate)
17 | QVQLVESGGGLVQAGGSLRLSCAASSIFPSNAMGLYRPAPGKERELVAAISSGGSTNYADSVKGRFTISRDNAKNTVYLQMNSLKPEDTAVYYCAAVRYYRRRTGSYYHYDYWGQGTQVTVSS | low polyreactivity
18 | QVQLVESGGGLVQAGGSLSLSCAASGRTFYYYAMGWYRQAPGKERELVAAITSRGTSTYYADSVKGRFTISRDNAKNTVYLQMNSLKPEDTAVYYCAAGFISYYGNCYDYWGQGTQVTVSS | high polyreactivity
19 | QVQLVESGGGVDQAGGSLRLSCAASGSTFHLYAMGCYRQAPGKERESVAAIRGRGGNTYADSVKGRFTISRDNAYNTVYLQMNSLKPEDTAVYYCAAPLLRDLRSPYSYNYWVQGTQVTVSS | low polyreactivity
20 | QDQLVESGGGLVQAGGSLRLSCAASGRTFYRYAMGWYRQAPGKERELVASITRGTSTNYADSVKGRFTISRDNAKNTVYLQMNSLKPEDTAVYYCNRRIFGGQRMYYWGQGTQVTVSS | high polyreactivity
21 | QVQLVESGGGLVQAGGSLRLSCAASRLTFQQYAMGWYRQAPGKERELVAAITSDGASTNYADSVKGRFTISRDYAKNTVYLQMNSLKPEDTAVYYCAARRRSRQYRYDYWGQGTQVTVSS | high polyreactivity
22 | QVQLVDSGGGLVQAGGSLRLSCAASAFIFTRYAMGWYRQAPGKERELVAAISWIGTSTYYADSVKGRFTISRDNAKNTVYLQMNSLKPEDTAVYYCAKRSTSQSLQGVYWGLGTQVTVSS | high polyreactivity
23 | QVQLVESGGGLVQAGGSLRLSCAASGYIFGIYAMGWYRQAPGKERELVARINWSGGRTYYADSVKGRFTISRDNAKNTVYLQMNSLKTEDTAVYYCAARSSYRKMDYWGQGTQVTVSS | high polyreactivity
24 | QVQLVESGGGLVQAGGSLRLSCAASGYIFLAYAMGWYRQAPGKERELVADNTYADSVKGRFTISRDNAKNTVYLQMNSLKPEDPAVYYCNADEVYDEYSYDYWGQGTQVTVSS | low polyreactivity
25 | QVQLVESGGGLVQAGGRLRLSCAAYGSIFDGYAMGWYRQAPGKERELVAAISRGGRTYYADSVKGRFTISRDNAKNTVYLQMNSLKPEDTAVYYCAAVTRLDGNMDYWGQGTQVTVSS | high polyreactivity
26 | QVQLLESGGGLVQAGGSLRLSCAASGRTLVGYAMGWYRQAPGTERELVAAITGSGGRTYYADSVKGRFTISRDNAKNTVYLQMNSLKPEDTAVYYCNKVYRVSSGAYLYDYWGQGTQVTVSS | high polyreactivity
27 | QVQLVESGGGLVQAGGSLRLSCAASGRTFASYDMGWYRQEPGKERELVAAISVSGDSTYYADSVKGRFTISRDNAKNTFYLQMNSLKPEDTAVYYCNAEAQDYDHDYWGQSTQVTVSS | low polyreactivity
28 | QVQLVESGGGLVQAGGSLRLSCAASGFTSWQYAMGWYRQAPGKERELVAAISVSGASTNYADSVRGRFTISRDNAKNTVYLQMNSLKPEETAVYYCAAAYVRYPTTRYYYWGQGTQVTVSS | high polyreactivity
29 | QVQLVESGGGLVQAGGSLRLSCAASGRIFDYYAMGWNRQAPGKERELVAAITWSGGNTYYADSVKGRFTISRDNAKNTVYLQMNSLKPEDTAVYYCAAEYYYLNDIYSEYDYWGQGTQVTVSS | high polyreactivity
30 | QVQLVDSGGGLVQAGVSLRLSCAASGSIFLLNAMGWYRQATGKERELVAAISWGGGSTYYADSVKGRFTISRDNAKNTVYLQMNSLKPEDTAVDYCNASVTLGQEVDYWGLGTQVTVSS | low polyreactivity
31 | QVQLVDSGGGLVQAGGSLRLSCAASGSIFGSYVMGWYRQAPGKERELVAAISSSGASTYYADSVKGRFTISRDNAKNTVYLQMNSLKPEDTAVYYCAAGYVHLYYFHEYYWGQGTQVTVSS | high polyreactivity
32 | QVQLVESGGGLVQAGGSHRLSCAASGRTFSTYSMGWYRQAPGKERELVAAISSGGGRTYYADSVKGRFTISRDIAKNTVYLQINSLKPEDTAVYDGAADRYFRSRRSYEYWGQGTQVTVSS | low polyreactivity
